Results taken from patent publication US20080044420A1 (published 2008).

Molecular target: T1, human IL-13R130Q (human, UniProt P35225 35-146, mildly biotinylated (approximately 1-2 molecules per molecule IL-13R130Q) in ELISA screens and receptor binding assays; not biotinylated when amine-coupled to the Biacore chip ; Mildly biotinylated …)
T1 construct: also called IL-13 R130Q variant; biotinylated IL-13R130Q
Test: method and antigen form not given
Method: Affinity determination by surface plasmon resonance (BIAcore™). […] F1 chips (Biacore, Sweden) were coated with ˜800 RU IL-13R130Q (250 μg/ml, 10 mM acetate buffer, pH 4.0) and respective amount of HSA (20 μg/ml/10 mM acetate buffer, pH 4.5) to the reference flow cell, using standard EDC-NHS amine coupling chemistry. Due to the instability of the antigen on the chip a freshly prepared chip was used for every measurement. Regeneration was done with 2×5 μl pulses of 10 mM HCl. All kinetic measurements were performed in PBS buffer (136 mM NaCl, 2.7 mM KCl, 10 mM Na₂HPO₄, 1.76 mM KH₂PO₄ pH 7.4) at a flow rate of 20 μl/min using Fab concentration range from 1.5-500 nM. Injection time for each concentration was 1 min. All sensograms were fitted globally using BIA evaluation software 3.1. Abbreviations: EDC 1-Ethyl-3-(3-Dimethlaminopropyl) carbodiimide; NHS N-hydroxysuccinimide; RU Resonance Units

T1 sequence (P35225 35-146 limits assumed): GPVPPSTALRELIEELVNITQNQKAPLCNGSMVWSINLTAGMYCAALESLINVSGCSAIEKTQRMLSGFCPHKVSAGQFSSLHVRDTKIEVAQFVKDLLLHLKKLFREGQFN

B1: lead candidate SEQ ID NOS:48-49 (HC AA50 Gly, AA54 Asp, AA56 Ser; LC AA1 Ser, AA2 Tyr) (Fab, V domains shown)
VH: QVQLVESGGGLVQPGGSLRLSCAASGFTFNSYWINWVRQAPGKGLEWVSGIAYDSSNTLYADSVKGRFTISRDNSKNTLYLQMNSLRAEDTAVYYCARGLGAFHWDMQPDYWGQGTLVTVSS
VL: SYELTQPPSVSVAPGQTARISCSGDNIGGTFVSWYQQKPGQAPVLVIYDDNDRPSGIPERFSGSNSGNTATLTISGTQAEDEADYYCGTWDMVTNNVFGGGTKLTVL
notes: also called final lead candidate
Question: For B1, which Kd is on record?
Answer: Its Kd is < 10 µM.
